How the values were obtained:
[1] = target: T1, AnkG_MBD 'site-2' mutant (Ile277Gln, Leu310Gln) (rat, UniProt O70511-1 38-855, Ile277Gln | Leu310Gln); test: ITC
T1 sequence: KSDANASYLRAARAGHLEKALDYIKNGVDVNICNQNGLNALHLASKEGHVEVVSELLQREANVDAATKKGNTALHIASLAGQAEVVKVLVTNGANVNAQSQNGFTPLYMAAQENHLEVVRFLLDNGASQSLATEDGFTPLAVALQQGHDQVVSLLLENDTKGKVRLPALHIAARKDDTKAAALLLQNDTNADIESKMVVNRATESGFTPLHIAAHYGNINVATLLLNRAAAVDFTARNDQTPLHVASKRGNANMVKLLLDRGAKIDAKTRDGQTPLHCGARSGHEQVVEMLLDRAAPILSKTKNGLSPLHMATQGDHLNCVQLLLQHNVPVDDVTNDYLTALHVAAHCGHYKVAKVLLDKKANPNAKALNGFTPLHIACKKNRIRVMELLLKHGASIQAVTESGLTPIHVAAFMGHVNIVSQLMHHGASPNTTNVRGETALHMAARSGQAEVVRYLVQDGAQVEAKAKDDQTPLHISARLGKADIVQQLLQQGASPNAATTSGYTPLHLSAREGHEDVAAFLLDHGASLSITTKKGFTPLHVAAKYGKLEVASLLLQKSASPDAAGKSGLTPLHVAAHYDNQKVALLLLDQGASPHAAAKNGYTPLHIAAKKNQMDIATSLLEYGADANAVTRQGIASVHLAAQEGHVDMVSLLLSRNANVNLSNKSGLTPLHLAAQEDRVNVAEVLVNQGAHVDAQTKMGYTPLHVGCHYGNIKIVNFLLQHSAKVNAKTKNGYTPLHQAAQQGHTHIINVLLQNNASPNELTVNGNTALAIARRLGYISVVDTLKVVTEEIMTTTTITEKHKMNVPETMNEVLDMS

[2] = target: T2, AnkG_MBD 'site-1' mutant (Phe141Gln, Phe164Gln) (rat); test: ITC
T2 chain: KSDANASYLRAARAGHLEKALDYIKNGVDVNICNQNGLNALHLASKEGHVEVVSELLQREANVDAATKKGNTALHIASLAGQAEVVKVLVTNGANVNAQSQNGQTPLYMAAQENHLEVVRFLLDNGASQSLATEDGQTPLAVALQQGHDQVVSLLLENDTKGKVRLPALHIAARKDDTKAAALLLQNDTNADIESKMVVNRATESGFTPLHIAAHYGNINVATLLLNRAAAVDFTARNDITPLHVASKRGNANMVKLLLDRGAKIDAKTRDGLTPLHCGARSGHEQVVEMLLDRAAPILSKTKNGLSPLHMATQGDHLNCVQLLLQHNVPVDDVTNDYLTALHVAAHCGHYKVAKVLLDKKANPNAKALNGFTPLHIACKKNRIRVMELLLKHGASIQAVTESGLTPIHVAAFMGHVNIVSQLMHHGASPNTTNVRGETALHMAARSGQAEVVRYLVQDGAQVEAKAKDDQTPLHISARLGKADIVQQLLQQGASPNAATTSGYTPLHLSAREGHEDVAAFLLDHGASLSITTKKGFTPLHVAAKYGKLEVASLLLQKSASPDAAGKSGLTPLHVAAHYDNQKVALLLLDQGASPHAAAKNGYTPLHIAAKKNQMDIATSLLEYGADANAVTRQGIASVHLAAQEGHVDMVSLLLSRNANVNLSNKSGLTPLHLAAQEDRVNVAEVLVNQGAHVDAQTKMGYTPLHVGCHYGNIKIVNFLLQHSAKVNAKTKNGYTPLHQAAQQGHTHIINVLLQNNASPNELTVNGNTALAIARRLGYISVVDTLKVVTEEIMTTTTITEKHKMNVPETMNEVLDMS

[3] = target: T3, AnkG 38–855 (AnkG MBD-AI-c protein; MBD + partial AI-c) (rat, UniProt O70511-1 38-855); test: ITC
T3 chain: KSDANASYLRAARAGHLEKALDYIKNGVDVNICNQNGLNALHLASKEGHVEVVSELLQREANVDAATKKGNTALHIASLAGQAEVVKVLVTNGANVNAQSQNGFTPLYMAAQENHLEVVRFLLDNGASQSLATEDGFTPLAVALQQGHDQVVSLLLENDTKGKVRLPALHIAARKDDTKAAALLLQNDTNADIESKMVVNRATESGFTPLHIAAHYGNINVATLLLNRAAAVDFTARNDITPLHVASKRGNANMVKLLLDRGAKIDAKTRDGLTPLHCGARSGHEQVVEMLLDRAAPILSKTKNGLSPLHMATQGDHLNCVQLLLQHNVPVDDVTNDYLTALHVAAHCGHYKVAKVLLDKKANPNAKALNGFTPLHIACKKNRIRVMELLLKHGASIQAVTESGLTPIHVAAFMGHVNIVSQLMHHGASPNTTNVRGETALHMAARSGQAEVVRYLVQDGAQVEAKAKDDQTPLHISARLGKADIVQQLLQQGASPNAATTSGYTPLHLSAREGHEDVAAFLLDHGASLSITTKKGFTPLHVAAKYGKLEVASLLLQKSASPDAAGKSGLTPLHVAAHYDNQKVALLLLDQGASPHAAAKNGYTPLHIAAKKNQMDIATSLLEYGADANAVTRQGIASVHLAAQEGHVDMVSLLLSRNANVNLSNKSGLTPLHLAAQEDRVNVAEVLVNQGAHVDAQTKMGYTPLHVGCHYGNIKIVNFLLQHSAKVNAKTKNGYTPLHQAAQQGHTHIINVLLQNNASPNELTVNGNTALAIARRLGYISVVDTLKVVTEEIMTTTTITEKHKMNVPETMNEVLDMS

AnkB R6-24 = target: T4, AnkB R6-24 (Homo sapiens); test: ITC
T4 chain: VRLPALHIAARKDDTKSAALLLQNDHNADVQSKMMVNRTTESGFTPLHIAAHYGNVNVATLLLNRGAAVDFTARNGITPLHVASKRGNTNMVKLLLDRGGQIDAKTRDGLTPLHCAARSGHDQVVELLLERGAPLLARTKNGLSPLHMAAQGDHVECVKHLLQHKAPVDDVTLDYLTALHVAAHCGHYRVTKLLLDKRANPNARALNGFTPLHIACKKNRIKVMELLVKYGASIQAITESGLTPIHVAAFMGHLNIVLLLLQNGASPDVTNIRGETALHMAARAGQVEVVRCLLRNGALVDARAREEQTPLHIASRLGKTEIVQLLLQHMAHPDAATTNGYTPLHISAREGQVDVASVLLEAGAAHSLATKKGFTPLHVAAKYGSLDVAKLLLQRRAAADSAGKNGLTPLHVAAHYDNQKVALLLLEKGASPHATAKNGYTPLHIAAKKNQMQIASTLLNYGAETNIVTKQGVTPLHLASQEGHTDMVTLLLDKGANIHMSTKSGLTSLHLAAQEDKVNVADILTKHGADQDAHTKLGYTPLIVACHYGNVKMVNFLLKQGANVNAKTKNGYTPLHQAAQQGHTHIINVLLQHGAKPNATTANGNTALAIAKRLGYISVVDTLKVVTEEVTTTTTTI

AnkB R1-14 = target: T5, AnkB R1-14 (Homo sapiens); test: ITC
T5 chain: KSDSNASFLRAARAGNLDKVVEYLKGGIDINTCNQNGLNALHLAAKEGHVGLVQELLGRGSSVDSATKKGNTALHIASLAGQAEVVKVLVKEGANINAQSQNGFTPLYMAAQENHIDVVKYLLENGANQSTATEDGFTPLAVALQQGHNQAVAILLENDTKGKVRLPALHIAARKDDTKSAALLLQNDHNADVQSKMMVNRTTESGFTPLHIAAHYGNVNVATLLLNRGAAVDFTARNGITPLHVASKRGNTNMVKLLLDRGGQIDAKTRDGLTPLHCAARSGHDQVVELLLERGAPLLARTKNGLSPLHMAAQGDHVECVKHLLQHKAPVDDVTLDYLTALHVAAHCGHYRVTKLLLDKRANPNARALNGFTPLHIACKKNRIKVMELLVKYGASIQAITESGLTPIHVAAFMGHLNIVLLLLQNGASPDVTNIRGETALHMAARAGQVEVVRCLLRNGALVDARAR

[4] = target: T6, AnkB 28–873 (MBD + full AI-c) (human, UniProt Q01484-2 28-873); test: ITC
T6 chain: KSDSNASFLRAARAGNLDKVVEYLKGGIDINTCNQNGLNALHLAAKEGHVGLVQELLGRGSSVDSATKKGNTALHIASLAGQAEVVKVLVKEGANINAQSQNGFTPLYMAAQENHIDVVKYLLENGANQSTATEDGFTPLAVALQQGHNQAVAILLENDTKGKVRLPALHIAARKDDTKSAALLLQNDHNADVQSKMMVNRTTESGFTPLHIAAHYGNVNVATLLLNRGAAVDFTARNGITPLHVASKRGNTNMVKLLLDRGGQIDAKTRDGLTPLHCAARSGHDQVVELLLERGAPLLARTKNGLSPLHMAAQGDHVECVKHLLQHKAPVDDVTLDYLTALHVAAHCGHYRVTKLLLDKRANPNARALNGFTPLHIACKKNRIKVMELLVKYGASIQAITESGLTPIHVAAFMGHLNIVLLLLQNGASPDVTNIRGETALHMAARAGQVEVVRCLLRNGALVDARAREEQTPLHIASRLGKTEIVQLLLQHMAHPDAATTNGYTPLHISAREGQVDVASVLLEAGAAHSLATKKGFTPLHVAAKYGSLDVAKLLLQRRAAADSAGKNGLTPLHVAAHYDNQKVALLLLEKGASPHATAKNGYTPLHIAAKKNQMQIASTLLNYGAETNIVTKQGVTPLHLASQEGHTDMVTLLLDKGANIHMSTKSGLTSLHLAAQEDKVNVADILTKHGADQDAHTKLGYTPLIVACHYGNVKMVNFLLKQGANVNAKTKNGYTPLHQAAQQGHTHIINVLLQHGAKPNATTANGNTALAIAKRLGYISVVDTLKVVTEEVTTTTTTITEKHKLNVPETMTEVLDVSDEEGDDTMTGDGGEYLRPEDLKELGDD

[5] = target: T3, AnkG 38–855 (AnkG MBD-AI-c protein; MBD …); test: ITC; two sites

B1: AnkG linker ΔAI-c (aa 861–920) (domain or fragment)
chain: KASAPEKLSDGEYISDGEEGEDAITGDTDKYLGPQDLKELGDDSLPAEGYVGFSLGARSA
B1 was tested, and the Kd [1] was 3.9 µM, the Kd [2] was 2.6 µM and the Kd [3] was 1.6 µM.

B2: AnkB entire linker (aa 828–965) (domain or fragment)
chain: TEKHKLNVPETMTEVLDVSDEEGDDTMTGDGGEYLRPEDLKELGDDSLPSSQFLDGMNYLRYSLEGGRSDSLRSFSSDRSHTLSHASYLRDSAVMDDSVVIPSHQVSTLAKEAERNSYRLSWGTENLDNVALSSSPIH
B2 gave a Kd (AnkB R6-24) of 4.7 µM, a Kd (AnkB R1-14) of 4.1 µM and a Kd [4] of 2.2 µM.

B3: AnkG long linker (aa 837–920; AI-c + AI-b) (domain or fragment)
chain: TEKHKMNVPETMNEVLDMSDDEVGKASAPEKLSDGEYISDGEEGEDAITGDTDKYLGPQDLKELGDDSLPAEGYVGFSLGARSA
In the case of B3, the Kd [5] is reported as roughly 3 µM.
